Assay results published in US20200347144A1 (SHANGHAI HYAMAB BIOTECH, published 2020).

Assays:
[1] = molecular target: T1, human 4-1BB, full length, on transfected cells (human, UniProt Q07011 24-255); assay: FACS on CHOK1-h4-1BB cells, Alexa 488 secondary antibody, average fluorescence intensity
T1 construct: whole, on cells; also called CHOK1-h4-1BB
Text: The pIRES plasmid carrying the full-length gene of monkey-derived […] (the preparation method is the same as the preparation method of the pCpC vector carrying the human-derived IgG Fc fragment (hFc) in “Preparation of immunogen A” of the step (1) in Example 1, in which the database accession number of the amino acid sequence of the extracellular region of monkey 4-1BB protein (Phe19-Thr239) is G7PSE7) was transfected into CHOK1 cell line to obtain CHOK1 stable transfected cell line containing monkey 4-1BB (herein referred to as CHOK1-c4-1BB stable cell line). The CHOK1-h4-1BB stable cell line and the CHOK1-c4-1BB stable cell line were expanded and cultivated to 90% confluence in T-75 cell culture flasks. The medium was exhausted, and washed twice with HBSS buffer (Hanks Balanced Salt Solution, purchased from Invitrogen), and then the cells were treated and collected with enzyme-free cell dissociation solution (Versene solution, purchased from Life Technology). The cells were washed twice with HBSS buffer, and after cell counting, the cells were diluted with HBSS buffer to 2×10⁶ cells per ml, and 1% goat serum blocking solution was added, the percentage being the mass percentage. It was incubated on ice for 30 minutes, and then washed twice with HBSS buffer by centrifugation. The collected cells were suspended in FACS buffer (HBSS containing 1% BSA, the percentage was the mass percentage) to 2×10⁶ cells/mL, and 100 μl per well was added to a 96-well FACS reaction plate. The purified 4-1BB antibody test sample obtained in Example 2 was added, 100 microliters per well and incubated on ice for 2 hours. […] It was washed three times with FACS buffer by centrifugation, and 100 μl of fixative [4% (v/v) paraformaldehyde] per well was added to suspend cells, and washed twice with FACS buffer after 10 minutes by centrifugation. The cells were suspended with 100 microliters of FACS buffer, and the results were detected and analyzed with FACS (FACS Calibur, purchased from BD).

[2] = molecular target: T1, human 4-1BB, full length, on …; assay: FACS, CHOK1-h4-1BB cells; Ab 0.00064 ug/ml
Summary of the method: (§1)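 CHOK1 stable lines expressing human or monkey 4-1BB were detached with enzyme-free Versene, blocked in 1% goat serum on ice for 30 min and resuspended at 2×10⁶ cells/mL in HBSS with 1% BSA. Purified antibody was bound on ice for 2 h, then cells were fixed in 4% paraformaldehyde and analysed by flow cytometry.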

[3] = molecular target: T2, monkey 4-1BB on CHOK1 cells (monkey); assay: FACS, CHOK1-c4-1BB cells; Ab 0.00013 ug/ml
T2 construct: whole, on cells; also called CHOK1-c4-1BB
Summary of the method: as §1

[4] = molecular target: T1, human 4-1BB, full length, on …; assay: FACS, CHOK1-h4-1BB cells; Ab 0.016 ug/ml
Summary of the method: as §1

[5] = molecular target: T3, hFc-tagged human 4-1BB extracellular domain protein (4-1BB-hFc) (human, UniProt Q07011 24-186, limits assumed); assay: ELISA: human 4-1BB-hFc coated at 1.0 µg/mL, antibody titrated, HRP secondary antibody, OD450
T3 construct: also called immunogen A; 4-1BB^ECD-hFc; not shown: human IgG Fc fragment (hFc) of the pCpC vector
Protocol: (§2) The purified immunogen A (4-1BB-hFc), monkey 4-1BB-his, and mouse 4-1BB-his obtained in Example 1 [for the preparation method, see step 1 of Example 1, preparation of immunogen A], of which the extracellular domain of monkey-derived 4-1BB protein (purchased from ACRO biosystems), the extracellular domain of mouse 4-1BB protein (purchased from sino biological) or other immune detection point proteins respectively were diluted with PBS to a final concentration of 1.0 μg/mL, then added with […] per well to 96-well ELISA plate. It was sealed with plastic film and incubated at 4° C. overnight. The next day, the plate was washed twice with the plate-washing solution [PBS containing 0.01% (v/v) Tween20] and blocking solution [PBS containing 0.01% (v/v) Tween 20 and 1% (v/v) BSA] was added and blocked at room temperature for 2 hours. The blocking solution was discarded and 100 μl of the purified 4-1BB antibody obtained in Example 2 was added per well. After incubated at 37° C. for 2 hours, the plate was washed 3 times with a plate-washing solution [PBS containing 0.01% (v/v) Tween20]. A secondary antibody (purchased from Sigma) labeled with HRP (horseradish peroxidase) was added, and after incubated at 37° C. for 2 hours, the plate was washed 3 times with a plate-washing solution [PBS containing 0.01% (v/v) Tween20]. 100 μl of TMB substrate was added per well. After incubated for 30 minutes at room temperature, 100 μl of stop buffer (1.0N HCl) was added per well. The A450 nm values were read using an ELISA plate reader (SpectraMax 384plus, Molecular Device).

[6] = molecular target: T1, human 4-1BB, full length, on …; assay: FACS, CHOK1-h4-1BB cells; Ab 0.4 ug/ml
Summary of the method: as §1

[7] = molecular target: T2, monkey 4-1BB on CHOK1 cells; assay: FACS, CHOK1-c4-1BB cells; Ab 2 ug/ml
Summary of the method: as §1

[8] = molecular target: T2, monkey 4-1BB on CHOK1 cells; assay: FACS, CHOK1-c4-1BB cells; Ab 0.4 ug/ml
Summary of the method: as §1

[9] = molecular target: T1, human 4-1BB, full length, on …; assay: FACS, CHOK1-h4-1BB cells; Ab 0.0032 ug/ml
Summary of the method: as §1

[10] = molecular target: T3, hFc-tagged human 4-1BB extracellular …; assay: ELISA, coated human 4-1BB-hFc; Ab 0.016 ug/ml
Protocol: as §2

[11] = molecular target: T1, human 4-1BB, full length, on …; assay: FACS, CHOK1-h4-1BB cells; Ab 2 ug/ml
Summary of the method: as §1

[12] = molecular target: T1, human 4-1BB, full length, on …; assay: FACS, CHOK1-h4-1BB cells; Ab 10 ug/ml
Summary of the method: as §1

[13] = molecular target: T2, monkey 4-1BB on CHOK1 cells; assay: FACS, CHOK1-c4-1BB cells; Ab 10 ug/ml
Summary of the method: as §1

[14] = molecular target: T3, hFc-tagged human 4-1BB extracellular …; assay: ELISA, coated human 4-1BB-hFc; Ab 10 ug/ml
Protocol: as §2

T1 sequence (Q07011 24-255): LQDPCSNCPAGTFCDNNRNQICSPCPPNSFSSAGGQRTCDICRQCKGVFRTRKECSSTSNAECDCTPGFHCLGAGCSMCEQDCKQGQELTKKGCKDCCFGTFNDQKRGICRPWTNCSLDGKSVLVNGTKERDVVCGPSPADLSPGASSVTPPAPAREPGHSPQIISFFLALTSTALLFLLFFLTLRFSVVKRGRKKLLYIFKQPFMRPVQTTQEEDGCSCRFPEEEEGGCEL

EC50 (read off the curve) [1]: ~0.05 µg/mL
average fluorescence intensity [2]: 9.3 MFI
average fluorescence intensity [3]: 3.3 MFI
average fluorescence intensity [4]: 98.2 MFI
EC50 (read off the curve) [5]: ~0.02 µg/mL
average fluorescence intensity [6]: 492 MFI
average fluorescence intensity [7]: 646 MFI
average fluorescence intensity [8]: 359 MFI
average fluorescence intensity [9]: 28.8 MFI
OD450 nm [10]: 1.72 OD450 nm
average fluorescence intensity [11]: 521 MFI
average fluorescence intensity [12]: 532 MFI
average fluorescence intensity [13]: 550 MFI
OD450 nm [14]: 3.53 OD450 nm
B1: 15G10D4 (antibody, V domains shown)
VH: QVQLVESGGGVVQPGRSLRLSCAASGFSFSSYAMHWVRQAPGKGLEWVAIIWYDGSNQYYADSVKGRFTISRDNSKNTLYLQMNSLRAEDTAVYYCARVKQWLVSYFDYWGQGTLVTVSS
VL: EIVMTQSPATLSVSPGERATLSCRASQSVSSNLAWYQQKPGQVPRLLIYGASTRATGIPARFSGSGSGTEFSLIISSLQSEDFAVYYCQQYNNWPTFGGGTKVEIK
